Numbering of substitutions follows the chain as printed. One block for each binder: values may come before it.
How the values were obtained:
[1] = molecular target: T1, membrane-bound full-length human CD89 (human, UniProt P24071 22-287); experiment: FACS, HEK293F-huCD89, 4C +NaN3, IgA then Ab 10 ug/mL; pre-bound heat-aggr serum IgA
T1 construct: on stably or transiently transfected HEK293F cells; also called FcalphaRI; huCD89
Experimental: After extensive washing in PBS/BSA/NaN₃, 1:200 diluted PE-conjugated streptavidin (Jackson ImmunoResearch) was added, and incubated for 30 minutes at 4° C. After extensive washing in PBS/BSA/NaN₃, cells were fixed in 2% formaldehyde in PBS/BSA/NaN₃ for 30 minutes at 4° C.

[2] = molecular target: T2, chimeric human/cynomolgus monkey CD89-II (human/cynomolgus monkey chimera, UniProt P24071 22-287); experiment: FACS, transiently transfected HEK293F; - = no binding
T2 construct: also called ΔIle47-Ile71 human EC1-CD89; II (47-71)
T2 chain: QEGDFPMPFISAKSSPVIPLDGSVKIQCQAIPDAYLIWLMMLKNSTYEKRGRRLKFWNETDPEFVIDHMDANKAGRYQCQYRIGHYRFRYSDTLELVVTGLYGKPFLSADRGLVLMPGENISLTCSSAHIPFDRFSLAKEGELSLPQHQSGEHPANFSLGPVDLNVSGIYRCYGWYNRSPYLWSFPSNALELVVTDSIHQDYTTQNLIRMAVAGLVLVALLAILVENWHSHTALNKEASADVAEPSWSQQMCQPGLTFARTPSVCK
Experimental: (§1) After 48 hours, the binding of CD89/IgA blocking mouse anti-human CD89 antibodies to aforementioned chimeric human CD89/cynomolgus monkey CD89 constructs on transfected cells was analyzed by FACS analysis. To this end, transient transfected HEK293F cells were put at 10×10⁶ cells/mL in ice-chilled phosphate-buffered saline containing 0.1% BSA (Sigma)/0.05% NaN₃ (PBS/BSA/NaN₃) supplemented with 50 μg/mL human IgGs (blocking Fcγ receptors; Sigma) for 10 minutes at 4° C. Then, 10 μL/tube (ie, 0.1×10⁶ cells) of these cells were incubated with or without 100 μL purified mouse anti-human CD89 antibody at 10 μg/mL (in PBS/BSA/NaN₃) for 30 minutes at 4° C. […] After extensive washing in PBS/BSA/NaN₃, cells were subsequently incubated with 1:200 diluted PE-conjugated goat anti-mouse IgG Fey-specific antibodies (Jackson ImmunoResearch) for 30 minutes at 4° C. After extensive washing in PBS/BSA/NaN₃, cells were fixed in 2% formaldehyde in PBS/BSA/NaN₃ for 30 minutes at 4° C.

[3] = molecular target: T1, membrane-bound full-length human CD89; experiment: FACS, HEK293F-huCD89, 4C +NaN3, IgA then Ab 10 ug/mL; pre-bound non-aggr serum IgA
Experimental: After this (ie, without washing), 50 μL purified mouse anti-human CD89 antibody at 20 μg/mL (in PBS/BSA/NaN₃) was added to these cells, and incubated for another 30 minutes at 4° C. […] After extensive washing in PBS/BSA/NaN₃, 1:200 diluted PE-conjugated streptavidin (Jackson ImmunoResearch) was added, and incubated for 30 minutes at 4° C. After extensive washing in PBS/BSA/NaN₃, cells were fixed in 2% formaldehyde in PBS/BSA/NaN₃ for 30 minutes at 4° C.

[4] = molecular target: T3, chimeric human/cynomolgus monkey CD89-III (human/cynomolgus monkey chimera, UniProt P24071 22-287); experiment: FACS, transiently transfected HEK293F, 10 ug/mL; ++ strong, + intermediate, -/+ weak
T3 construct: also called ΔGly72-Gly96 human EC1-CD89; III (72-96)
T3 chain: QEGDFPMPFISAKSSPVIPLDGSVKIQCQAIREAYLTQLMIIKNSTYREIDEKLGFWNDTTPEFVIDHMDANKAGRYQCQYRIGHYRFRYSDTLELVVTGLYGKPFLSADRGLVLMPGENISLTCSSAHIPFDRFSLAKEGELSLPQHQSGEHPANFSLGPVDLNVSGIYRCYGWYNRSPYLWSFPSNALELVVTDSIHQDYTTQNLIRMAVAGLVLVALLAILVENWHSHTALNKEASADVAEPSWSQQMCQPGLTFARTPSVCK
Experimental: as §1

[5] = molecular target: T4, chimeric human/cynomolgus monkey CD89-hotspots (human/cynomolgus monkey chimera, UniProt P24071 22-287); experiment: as above
T4 construct: also called ΔThr58, Gln59; ΔArg73, Arg74, Lys76
T4 chain: T3 chain with T37I, Q38W, D51G, D59E, T61D, H85L, Y86S
Experimental: as §1

[6] = molecular target: T1, membrane-bound full-length human CD89; experiment: FACS, HEK293F-huCD89, unlabeled Ab 10 ug/mL first; competitor A3-PE
Experimental: (§2) Then, 10 μL/tube (ie, 0.1×10⁶ cells) of these cells were incubated with or without 100 μL purified mouse anti-human CD89 antibody at 10 μg/mL (in PBS/BSA/NaN₃) for 30 minutes at 4° C. […] After extensive washing in PBS/BSA/NaN₃, cells were fixed in 2% formaldehyde in PBS/BSA/NaN₃ for 30 minutes at 4° C.

[7] = molecular target: T3, chimeric human/cynomolgus monkey …; experiment: FACS, transiently transfected HEK293F; - = no binding
Experimental: as §1

[8] = molecular target: T1, membrane-bound full-length human CD89; experiment: FACS, HEK293F-huCD89, unlabeled Ab 10 ug/mL first; competitor A59-PE
Experimental: as §2

[9] = molecular target: T2, chimeric human/cynomolgus monkey CD89-II; experiment: FACS, transiently transfected HEK293F, 10 ug/mL; ++ strong, + intermediate, -/+ weak
Experimental: as §1

[10] = molecular target: T5, membrane full-length bovine Fcγ2R (bovine); experiment: FACS, transiently transfected HEK293F
T5 chain: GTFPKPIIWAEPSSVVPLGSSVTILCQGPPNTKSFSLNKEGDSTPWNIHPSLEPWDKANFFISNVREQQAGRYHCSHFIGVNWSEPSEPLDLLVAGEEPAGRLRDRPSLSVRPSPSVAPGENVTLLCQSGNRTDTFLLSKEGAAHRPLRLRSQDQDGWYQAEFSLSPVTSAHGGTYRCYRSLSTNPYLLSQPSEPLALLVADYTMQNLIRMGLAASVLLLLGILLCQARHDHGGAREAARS

[11] = molecular target: T6, chimeric human EC1-CD89/bovine EC2-Fcγ2R (bovine TM & bovine IC) (human/bovine chimera); experiment: FACS, transiently transfected HEK293F, 10 ug/mL
T6 construct: also called human EC1-CD89 (version with bovine transmembrane-intracellular region)
Experimental: (§3) After 48 hours and/or 72 hours, the binding of CD89/IgA blocking mouse anti-human CD89 antibodies to aforementioned chimeric human/bovine receptors on transfected cells was analyzed by FACS analysis. To this end, transient transfected HEK293F cells were put at 10×10⁶ cells/mL in ice-chilled phosphate-buffered saline containing 0.1% BSA (Sigma)/0.05% NaN₃ (PBS/BSA/NaN₃) supplemented with 50 μg/mL human IgGs (blocking Fcγ receptors; Sigma) for 10 minutes at 4° C. Then, 10 μL/tube (ie, 0.1×10⁶ cells) of these cells were incubated with or without 100 μL purified mouse anti-human CD89 antibody at 10 μg/mL (in PBS/BSA/NaN₃) for 30 minutes at 4° C. […] After extensive washing in PBS/BSA/NaN₃, cells were subsequently incubated with 1:200 diluted PE-conjugated goat anti-mouse IgG Fey-specific antibodies (Jackson ImmunoResearch) for 30 minutes at 4° C. After extensive washing in PBS/BSA/NaN₃, cells were fixed in 2% formaldehyde in PBS/BSA/NaN₃ for 30 minutes at 4° C.

[12] = molecular target: T7, chimeric human EC1-CD89/bovine EC2-Fcγ2R (human TM & human IC) (human/bovine chimera); experiment: FACS, transiently transfected HEK293F, 10 ug/mL
T7 construct: also called human EC1-CD89 (version with human transmembrane-intracellular region)
Experimental: as §3

- percent IgA binding [1]: 26 to 50%
- binding result [2]: no binding (tested: 10 µg/mL)
- percent IgA binding [3]: 0 to 25%
- binding result [4]: binds
- binding result [5]: binds
B1: mouse anti-human CD89-specific antibody 20B4 (antibody, mouse IgG1, V domains shown)
VH: QVQLKESGPGLVAPSQSLSITCTVSGFSLTSYGVHWVRQPPGKGLEWLGIIWAGGSTSYNSALMSRLSISKDNSKSQVFLKMNSLQTDDTAMYYCARDHYDLFAYWGQGTLVTVSA
VL: DILMTQSPSSMSVSLGDTVSITCHASQDISRNIGWLQQKPGKSFKGLIYHGTNLEDGVPSRFSGSGSGADYSLTISSLESEDFADYYCVQYAQFPRTFGGGTKLEIK

- % blocking of A3-PE binding [6]: < 25%
- binding result [7]: no binding (tested: 10 µg/mL)
- % blocking of A59-PE binding [8]: < 25%
- binding result [9]: binds
B2: mouse anti-human CD89-specific antibody 8F3 (antibody, mouse IgG1, V domains shown)
VH: EVQLVESGGGLVKPGGSLKLSCAASGFTFSNYGMSWVRQTPDKRLEWVATMHSGGTYTYYPDNVKGRFTISRDNAKNNLYLQMSSLRSEDTAMYYCARETGLYDGLFDFWGQGTTLTVSS
VL: DVQITQSPSYLAASPGETITINCRASKTISKYLAWYQEKPGKTNMLLIYSGSTLQSGVPSRFSGSGSGTDFTLTISSLEPEDLAMYYCQQHDEYPWTFGGGTKLEIK

- % blocking of A3-PE binding [6]: < 25%
- binding result [10]: no binding (tested: 10 µg/mL)
- binding result [11]: binds
- binding result [12]: binds
- % blocking of A59-PE binding [8]: < 25%
- binding result [9]: binds
B3: mouse anti-human CD89-specific antibody 10E7 (antibody, mouse IgG1, V domains shown)
VH: EVQLVESGGGLVQPGGSLKLSCAASGLTFSSYGMSWVRQTPDKRLELVATINGNGDITYYPDSVKGRFTISRDNAKNTLYLQMSSLKSEDTAMYYCARDYDYDYAMDYWGQGTSVTVSS
VL: DIQMTQSTSSLSASLGDSVTISCRASQDIINYLNWYQQKPDGTVKLLIYYTSRLHSGVPSRFSGSGSGTEYSLTVSNLEKEDIATYFCQQGKTLPYTFGGGTKLEIK

From patent publication US20210388084A1 (JJP BIOLOGICS SP Z O O, published 2021)
